The record followed here is patent US20210002370A1.

For the experiment, the target named is PD-L1 extracellular domain expressed in HEK293 cells (human) (UniProt Q9NZQ7). The experiment is described as follows: gradient dilution ELISA on coated PD-L1, serum dilution 200.
Sequence of PD-L1 extracellular domain expressed in HEK293 cells (human) (Q9NZQ7 19-238): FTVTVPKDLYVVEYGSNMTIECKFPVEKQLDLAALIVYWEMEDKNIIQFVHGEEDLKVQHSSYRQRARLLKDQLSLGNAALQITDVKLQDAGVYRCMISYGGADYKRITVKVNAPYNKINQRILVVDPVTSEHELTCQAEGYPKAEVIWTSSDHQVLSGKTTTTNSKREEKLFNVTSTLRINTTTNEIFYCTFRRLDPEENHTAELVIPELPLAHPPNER

In turn, Alpaca serum before immunization registered an ELISA OD of 0.631 OD450 nm.
